Among the data in PMC4960319 are fold weakening of binding to σ^R against RsrA and Kd values, retold here.

Assay [1] has as its target σ^R (sigma factor SigR) from Streptomyces coelicolor, residues 5-227, tagless (Streptomyces coelicolor) (UniProt Q7AKG9). The assay is described as follows: ITC; RsrA mutants (values in Supplementary Table 1); 35 °C, 50 mM Tris pH 7.5, 100 mM NaCl, 2 mM DTT; direct titration for weaker binding mutants (10 μM RsrA in the cell, 100 μM σ^R in the syringe); RsrA preincubated with ZnCl2 and buffer exchanged where zinc was included. Background: In ITC the heat of successive injections is recorded.

In assay [2] the target is σR (residues 5-227) (Streptomyces coelicolor) (UniProt Q7AKG9). As to the kind of experiment: ITC; with zinc (+), RsrA preincubated with 1 mM ZnCl2 and buffer exchanged; direct titration for weaker binding mutants (methods: 10 μM RsrA in the cell, 100 μM σR in the syringe); 35 °C, 50 mM Tris pH 7.5, 100 mM NaCl, 2 mM DTT; single binding site model.

In assay [1], “RsrA Val54Ala Leu57Ala (from UniProt Q7AKG8 1-105) (natural protein)” displayed a fold weakening of binding to σ^R against RsrA of over 100 fold. Still for that read-out and setting: the result for “RsrA Val75Ala Leu79Ala (from UniProt Q7AKG8 1-105) (natural protein)” reads over 100 fold. For orientation: Kd means the concentration at which binding is half-saturated. For the substance “RsrA* C41S (from UniProt Q7AKG8 4-105) (natural protein)”, the Kd in assay [2] amounted to 557 nM. This counts as sub-micromolar.
